PMC3728621, “Structural analysis of autoinhibition in the Ras-specific exchange factor RasGRP1” (eLife, 2013)

B1: RasGRP1^CC (human RasGRP1 C-terminal coiled coil, residues 739-793) (domain or fragment, UniProt O95267 739-793, looked up)
chain: ELRHLRLPTYQELEQEINTLKADNDALKIQLKYAQKKIESLQLEKSNHVLAQMEQ
notes: human RasGRP1 (full length 797 residues), residues 739-793, containing the predicted coiled coil (747-789); Parallel dimeric coiled coil; The model holds residues 745-793 (molecule A) and 745-786 (molecule B); also called C-terminal oligomerization domain; source: E. coli BL21(DE3), purified (HisTrap, tag removal with ULP1, second HisTrap, Superdex gel filtration); not shown: His6, N-terminal, …
B2: RasGRP1^CEC (human Ras guanine nucleotide releasing protein 1, residues 50-607: REM, Cdc25, EF and C1 domains) (domain or fragment, UniProt O95267 50-607, looked up)
chain: MVSLGHLAKGASLDDLIDSCIQSFDADGNLCRSNQLLQVMLTMHRIVISSAELLQKVITLYKDALAKNSPGLCLKICYFVRYWITEFWVMFKMDASLTDTMEEFQELVKAKGEELHCRLIDTTQINARDWSRKLTQRIKSNTSKKRKVSLLFDHLEPEELSEHLTYLEFKSFRRISFSDYQNYLVNSCVKENPTMERSIALCNGISQWVQLMVLSRPTPQLRAEVFIKFIQVAQKLHQLQNFNTLMAVIGGLCHSSISRLKETSSHVPHEINKVLGEMTELLSSSRNYDNYRRAYGECTDFKIPILGVHLKDLISLYEAMPDYLEDGKVNVHKLLALYNHISELVQLQEVAPPLEANKDLVHLLTLSLDLYYTEDEIYELSYAREPRNHRAPPLTPSKPPVVVDWASGVSPKPDPKTISKHVQRMVDSVFKNYDHDQDGYISQEEFEKIAASFPFSFCVMDKDREGLISRDEITAYFMRASSIYSKLGLGFPHNFQETTYLKPTFCDNCAGFLWGVIKQGYRCKDCGMNCHKQCKDLVVFECKKRAKNPVAPTENNTS
notes: human RasGRP1 (full length 797 residues), residues 50-607, spanning the REM, Cdc25, EF and C1 domains; Crystallographic dimer; In gel filtration it forms dimers and higher order oligomers, depending on concentration; The structural model spans residues 53-593; 186-192 and 437-448 are not modelled; source: E. coli BL21(DE3), purified (HisTrap, tag removal with ULP1, second HisTrap, Superdex gel …)

How the values were obtained:
[1] = target: the molecule itself; test: multiangle light scattering; RasGRP1^CC in solution, 30 μM to 1.5 mM monomer; data not shown
[2] = target: the molecule itself; test: crystal structure; RasGRP1^CEC at 3.0 Å; hanging drop, 0.15 M sodium citrate tribasic, 22% PEG 3350, 1 mM MnCl2, 20°C; dimer generated by a crystallographic twofold axis

Protein	stoichiometry N [1]	binding result [2]
B1	2	–
B2	–	binds
